# Experimental data as given in patent US20180244730A1.
# Tests used:
# [1] = target: SnoopCatcher (Streptococcus pneumoniae); assay: time-course of isopeptide bond formation, SDS-PAGE densitometry, 1:1 ratio
# [2] = target: SnoopCatcher (Streptococcus pneumoniae); assay: time-course of isopeptide bond formation, SDS-PAGE densitometry, excess of SnoopTag-MBP
substance,measurement,setting,value
SnoopTag-MBP,reaction yield,[1],80%
same,percent of SnoopCatcher consumed,[2],100%
